The binders below were run against T1, mouse IL-2Rγ (mouse) (UniProt P34902) (assay: PE binding ELISA, periplasmic extract on coated protein).
T1 sequence (looked up): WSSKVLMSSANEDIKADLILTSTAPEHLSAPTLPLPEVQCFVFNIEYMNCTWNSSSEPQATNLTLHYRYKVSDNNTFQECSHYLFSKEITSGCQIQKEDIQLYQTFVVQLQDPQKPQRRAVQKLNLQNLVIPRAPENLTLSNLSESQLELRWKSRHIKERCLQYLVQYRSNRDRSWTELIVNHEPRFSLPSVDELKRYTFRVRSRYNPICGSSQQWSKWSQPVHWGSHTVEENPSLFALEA

OD (PE binding ELISA) | Binder
0.048 OD450 nm | 27-MP04G01 (VHH) VHH: QVQLVESGGGLVQAGGSLTLSCAAPGRTFGTDVVGWFRQAPGKEREFVASISRSGDGIYYDDSVKGRFTISRNNAWNTVNLQMNSLKVEDTAVYYCAAGDGWSTYDYWGQGTQVTVSS
0.049 OD450 nm | FJ1427_P035MP04C01 (VHH) VHH: QVQLVESGGGLVQAGGSLTLSCAASGRTFSTDVVGWFRQAPGKEREFVASISRSGDGIYYDDSVKGRFTISRNNAWNTVNLQMNNLKVEDTAVYYCAAGDGWSTYDYWGQGTQVTVSS
0.047 OD450 nm | 33-MP04C09 (VHH) VHH: QLQLVESGGGLVQAGGSLRLSCAASGPTFSRVAVGWFRQAPGKEREFVAAVNRPATMTKYADSVKGRFTVSRDNAKNTVDLQMNSMKPEDTAVYYCAADSVPYGRPYYWQTSAGDYDYWGQGTQVTVSS
0.05 OD450 nm | FJ1427_P035MP04G09 (VHH) VHH: QVQLQESGGGLVQAGGSLRLSCAASGPTFSRVAVGWFRQVPGKEREFVAAVNRPATMTKYADSVKGRFTISRDNAKNTVDLQMNSMKPEDTAVYYCAADSVPYGRPYYFQTSAGEYDYWGQGTQVTVSS
0.05 OD450 nm | 29-MP04H02 (VHH) VHH: QVQLVESGGGLVQAGGSLRLACVASGLTFDNYYMGWFRQAPGKEREFVAGIIWNGDHTAYADSIKGRFTISRDNAKNTAYLRMNSLKPEDTAVYYCAATFWIERATTPDIGQYAYWGQGTQVTVSS
0.049 OD450 nm | FJ1427_P035MP04F02 (VHH) VHH: QLQLVESGGGLVQAGGSLTLSCAASGRTFSRDVVGWFRQAPGKEREFVASISRSGDGTFYTDSVKGRFTISSRDNAKNTVLLQMNSLKVEDTAVYYCAAGDGWSTYDYWGQGTQVTVSS
0.048 OD450 nm | FJ1427_P035MP04B02 (VHH) VHH: QVQLVESGGGWVQVGESLRLSCAPSGRTFVSGIMGWFRQTPGKEREFVARIILNNNSTRYTDSVKGRFTISRDSAKNTMYLQMNTLRPEDTAVYYCAARDRYGSGNSLSPSAYDYWGQGTQVTVSS
0.052 OD450 nm | FJ1427_P035MP04A03 (VHH) VHH: EVQLVESGGGWVQVGESLRLSCAPSGRTFVSGIMGWFRQTPGKEREFVARIILNNNSTRYTDSVKGRFTISRDSAKNTMYLQMNTLRPEDTAVYYCAARDRYGSGNSLSPSAYDYWGQGTQVTVSS
0.047 OD450 nm | FJ1427_P035MP04B07 (VHH) VHH: EVQLVESGGGWVQVGESLRLSCAPSGRTFVSGIMGWFRQTPGKEREFVARIILNNNSTRYTDSVKGRFTISRDSAKNTLYLQMNTLRPEDTAVYYCAARDRYGSGNSLSPSAYDYWGQGTQVTVSS
0.047 OD450 nm | FJ1427_P035MP04C05 (VHH) VHH: QVQLVESGGGWVQVGESLRLSCAPSGRTFVSGIMGWFRQAPGKEREFVARIILNNNSTRYTDSVKGRFTISRDSAKDTMYLQMNTLRPEDTAVYYCAARDRYGSGNSLSPSAYDYWGQGTQVTVSS
0.049 OD450 nm | FJ1427_P035MP04E02 (VHH) VHH: QVQLVESGGGWVQVGESLRLSCAPSGRTFVSGIMGWFRQTPGKEREFVARIILNNNSTRYTDSVKGRFTISRDSAKNTMYLQMNTLRPEDTAVYYCAARDRYGSGNSLSPSAYDYWGQGTQVTVSS
0.049 OD450 nm | FJ1427_P035MP04G07 (VHH) VHH: QVQLVESGGGWVQVGESLRLSCAPSGRTFVSGIMGWFRQAPGKEREFVARIILNNNSTRYTDSVKGRFTISRDSAKNTMYLQMNTLRPEDTAVYYCAARDRYGSGNSLSPSAYDYWGQGTQVTVSS
0.048 OD450 nm | FJ1427_P035MP04B06 (VHH) VHH: QLQLVESGGGWVQVGESLRLSCVPSGRTFVSGIMGWFRQAPGKEREFVARIILNNNSTRYTDSVKGRFTISRDSAKNTMYLQMNTLRPEDTAVYYCAARDRYGSGNSLSPSAYDYWGQGTQVTVSS
0.05 OD450 nm | 32-MP04A08 (VHH) VHH: QVQLVESGGGLVQAGGSLRLSCAASGRTFGSTAVGWFRQVPGKEREFVSAINRSGSATTYADSVKGRFTISRDNAKNTVYLQMNSLTPEDTGVYYCAADSLPYGRPYYFQRSAGEYDYWGQGTQVTVSS
0.045 OD450 nm | 35-MP07G01 (VHH) VHH: QVQLQESGGGLVQGGGSLRLSCAASGGIFSSYAMGWFRQAPGKEREFVAAISRSGRSTNYADSVKGRFTISRDNAKSTVYLQMNSLKPEETAVYYCAAGRYYNSAYDPSPGDFGSWGHGTQVTVSS
0.048 OD450 nm | 30-MP04C03 (VHH) VHH: EVQLVESGGGWVQDGGSLRLSCALSGRTFVRGIMGWFRQAPGKEREFVARIIWHINSTRYADSVKGRFTISRDSAKNTMYLQMDSLRPEDTAVYYCAARDRYGSGNSLSPSAYDYWGQGTQVTVSS
0.049 OD450 nm | FJ1427_P035MP04G03 (VHH) VHH: EVQLVESGGGWVQVGESLRLSCAPSGRTFVSGIMGWFRQAPGKEREFVARIILNNNSTRYTDSVKGRFTISRDSAKNTMYLQMDSLRPEDTAVYYCAARDRYGSGNSLSPSAYDYWGQGTQVTVSS
0.05 OD450 nm | FJ1427_P035MP04H09 (VHH) VHH: EVQLVESGGGWVQVGESLRLSCAPSGRTFVSGIMGWFRQAPGKEREFVARIILNNNSTRYTDSVKGRFTISRDSAKNTMYLQMNTLRPEDTAVYYCAARDRYGSGNSLSPSAYDYWGQGTQVTVSS
0.048 OD450 nm | FJ1427_P035MP04E04 (VHH) VHH: EVQLVESGGGWVQVGESLRLSCVPSGRTFVSGIMGWFRQAPGKEREFVARIILNSNSTRYTDSVKGRFTISRDSAKNTMYLQMNSLRPEDTAVYYCAARDRYGSGNSLSPSAYDYWGQGTQVTVSS
0.048 OD450 nm | FJ1427_P035MP04D09 (VHH) VHH: QVQLVESGGGWVQVGESLRLSCAPSGRTFVRGIMGWFRQAPGKEREFVARIILNSNSTRYIDSVKGRFTISRDSAKNTMYLQMNSLRPEDTAVYYCAARDRYGSGNSLSPSAYDYWGQGTQVTVSS
0.049 OD450 nm | FJ1427_P035MP04A07 (VHH) VHH: QLQLVESGGGWVQVGESLRLSCAPSGRTFVSGIMGWFRQAPGKEREFVARIILNNNSTRYIDSVKGRFTISRDSAKNTMYLQMDSLRPEDTAVYYCAARDRYGSGNSLSPSAYDYWGQGTQVTVSS
0.049 OD450 nm | FJ1427_P035MP04F09 (VHH) VHH: QVQLVESGGGWVQVGESLRLSCAPSGRTFVRGIMGWFRQAPGKEREFVARIILNNNSTRYTDSVKGRFTISRDSAKNTMWLQMDSLRPEDTAVYYCAARDRYGSGNSLSPSAYDYWGQGTQVTVSS
0.049 OD450 nm | FJ1427_P035MP04G08 (VHH) VHH: QVQLVESGGGWVQVGESLRLSCAPSGRTFVSGIMGWFRQAPGKEREFVARIILNNNSTRYTDSVKGRFTISRDSAKNTMYLQMDSLRPEDTAVYYCAARDRYGSGNSLSPSAYDYWGQGTQVTVSS
0.048 OD450 nm | FJ1427_P035MP04B03 (VHH) VHH: QVQLQESGGGLVQAGESLRLSCAASGPTASRVAVAWFRQVPGKEREFVAVVNRPGTMTKYADSVKGRFTISRDSAKNTVYLQMNSLKPEDTAVYYCAADSVPYGRPYYFQTSAGNYDYWGQGTQVTVSS
0.05 OD450 nm | FJ1427_P035MP04A04 (VHH) VHH: QVQLVESGGGLVQAGESLRLSCAASGPTASRVAVAWFRQVPGKEREFVAVVNRPGTMTKYADSVKGRFTISRDSAKNTVYLQMNSLKPEDTAVYYCAADSVPYGRPYYFQTSAGNYDYWGQGTQVTVSS
0.053 OD450 nm | FJ1427_P035MP04H08 (VHH) VHH: EVQLVESGGGLVQAGESLRLSCAASGPTASRVAVAWFRQVPGKEREFVAVVNRPGTMTKYADSVKGRFTISRDSAKNTVYLQMNSLKPEDTAVYYCAADSVPYGRPYYFQTSAGNYDYWGQGTQVTVSS
0.048 OD450 nm | FJ1427_P035MP04D08 (VHH) VHH: QVQLVESGGGLVQAGESLRLSCAASGPTASRVAVAWFRQVPGKEREFVAVVNRPGTMTKYADSVKGRFTISRDSAKNTVYLQMNSLKPEDTAVYYCAADSVPYGRPYYFQTSAGNYDYWGQGTQVTVSS
0.049 OD450 nm | FJ1427_P035MP04A09 (VHH) VHH: QVQLVESGGGLVQAGGSLRLSCAASGRTFGAVAVGWFRQVPGKEREFVAAINRNGSATKYADSAKGRFTISRDNAESPVYLQMNSLKPEDTAIYYCAADSLPYGRPYYFQTSAGEYDYWGQGTQVTVSS

Each binder was assayed against T2, mouse IL-2Rβ (mouse) (UniProt P16297) (assay: P.E. binding ELISA on coated protein).
T2 sequence (looked up): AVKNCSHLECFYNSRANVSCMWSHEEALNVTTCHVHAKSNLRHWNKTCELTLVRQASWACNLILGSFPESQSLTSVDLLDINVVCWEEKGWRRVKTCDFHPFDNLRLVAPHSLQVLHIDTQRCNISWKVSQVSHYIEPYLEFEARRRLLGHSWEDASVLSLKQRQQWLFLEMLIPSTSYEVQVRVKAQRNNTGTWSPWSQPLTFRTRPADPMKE

P.E. binding ELISA OD | Binder
0.048 OD450 nm | FJ1427_P035MP06B02 (VHH) VHH: QVQLVESGGGLVQAGGSLRLSCVVSGDVFVRYTMAWFRQAPGKEREFVAAVTDSGRTTEYVDSVKGRFTVSRDNAKNTVYLQMNNLKPEDTAVYYCAANTDYFQIRSVDNNAWGQGTQVTVSS
0.049 OD450 nm | FJ1427 P035MP06G01 (VHH) VHH: EVQLVESGGGLVQAGDSLRLSCVVSGRGFSTYTMGWFRQAPGKEREFVAAITWSTGRTSYADSVKGRFTISRENAENTVYLQMNSLELEDTAVYYCATDQVLWTTRPRDMRYWGQGTQVTVSF

— patent publication US20240409645A1
